± gives the uncertainty stated by the source.
Experiment: self-splicing fitness, log relative to wild type (ln ratio); higher = more splicing; Tetrahymena group I intron in knt gene, E. coli kanamycin selection, DiMSum; sequences stand for … in CUCUCU…GGAGGGAAAAGUUAUCAGGCAUGCACCUGGUAGCUAGUCUUUAAACCAAUAGAUUGCAUCGGUUUAAAAGGCAAGACCGUCAAAUUGCGGGAAAGGGGUCAACAGCCGUUCAGUACCAAGUCUCAGGGGAAACUUUGAGAUGGCCUUGCAAAGGGUAUGGUAAUAAGCUGACGGACAUGGUCCUAACCACGCAGCCAAGUCCUAAGUCAACAGAUCUUCUGUUGAUAUGGAUGCAGUUCACAGACUAAAUGUCGGUCGGGGAAGAUGUAUUCUUCUCAUAAGAUAUAGUCGGACCUCUCCUUAAUGGGAGCUAGCGGAUGAAGUGAUGCAACACUGGAGCCGCUGGGAACUAAUUUGUAUGCGAAAGUAUAUUGAUUAGUUUUGGAGUACUCGUGGUCG
Outline: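 Colonies from six replicate transformations of E. coli BL21(DE3) were pooled and amplicon-sequenced on an Illumina HiSeq 2500. The library placed an intron with all eight P1ex-region nucleotides randomised inside the knt kanamycin-resistance gene on pET-22b(+), and cells grew overnight at 37°C or 30°C on LB agar with or without 25 μg/mL kanamycin (plus 100 μg/mL carbenicillin, 50 μM IPTG, 0.2% rhamnose). Fitness is the DiMSum error-weighted combination of wild-type-normalised replicate fold changes, kanamycin versus none.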

Sequence	self-splicing fitness (ln) (30 °C)	self-splicing fitness (ln) (37 °C)
UAUGAGCAAUAUUACGGGUA	-1.86 ± 0.14	-2.05 ± 0.14
UAUGAGCAAUAUUACGGGUC	-3.72 ± 0.23	-2.91 ± 0.25
UAUGAGCAAUAUUACGGGUG	-2.3 ± 0.15	-1.06 ± 0.16
UAUGAGCAAUAUUACGGUAU	-4.03 ± 0.42	-1.06 ± 0.24
UAUGAGCAAUAUUACGUCGU	-3.39 ± 0.3	-2.93 ± 0.32
UAUGAGCAAUAUUACGUGUA	-2.13 ± 0.16	-1.32 ± 0.12
UAUGAGCAAUAUUACGUUAA	-4.12 ± 0.31	-2.59 ± 0.28
UAUGAGCAAUAUUACGUUCU	-3.57 ± 0.29	-2.67 ± 0.34
UAUUAGCAAUAUUACGAAAC	–	-2.53 ± 0.3
UAUUAGCAAUAUUACGAAGG	-2.18 ± 0.22	-0.523 ± 0.17
UAUUAGCAAUAUUACGAAUC	-3.46 ± 0.23	-0.913 ± 0.2
UAUUAGCAAUAUUACGAAUU	-2.51 ± 0.2	-0.596 ± 0.21
UAUUAGCAAUAUUACGACUG	-0.225 ± 0.16	0.804 ± 0.21
UAUUAGCAAUAUUACGAUCC	-3.56 ± 0.38	-1.76 ± 0.25
UAUUAGCAAUAUUACGCAGC	-3.88 ± 0.24	-2.56 ± 0.31
UAUUAGCAAUAUUACGCAGU	-2.78 ± 0.28	-2.72 ± 0.26
UAUUAGCAAUAUUACGCCUC	–	-3.1 ± 0.48
UAUUAGCAAUAUUACGCCUU	-0.78 ± 0.27	-0.885 ± 0.36
UAUUAGCAAUAUUACGCGCC	-1.23 ± 0.4	–
UAUUAGCAAUAUUACGCGUG	-0.538 ± 0.055	-0.463 ± 0.065
UAUUAGCAAUAUUACGCUCC	-2.75 ± 0.35	–
UAUUAGCAAUAUUACGCUUC	-3.43 ± 0.44	-2.84 ± 0.38
UAUUAGCAAUAUUACGGAAA	-1.81 ± 0.48	-1.98 ± 0.46
UAUUAGCAAUAUUACGGCAC	-1.88 ± 0.21	-0.983 ± 0.35
UAUUAGCAAUAUUACGGGUG	-0.149 ± 0.069	0.0549 ± 0.098
UAUUAGCAAUAUUACGGUAG	-2.42 ± 0.21	-0.417 ± 0.17
UAUUAGCAAUAUUACGUAGC	-2.37 ± 0.22	-1.31 ± 0.27

Sequence	self-splicing fitness (ln) (30 °C)	self-splicing fitness (ln) (37 °C)
UAUUAGCAAUAUUACGUCUC	-2.7 ± 0.35	-1.5 ± 0.22
UAUUAGCAAUAUUACGUGAA	-2.17 ± 0.13	-1.87 ± 0.15
UAUUAGCAAUAUUACGUGCA	-0.96 ± 0.16	-0.986 ± 0.16
UAUUAGCAAUAUUACGUGGU	-2.57 ± 0.15	-2.69 ± 0.23
UAUUAGCAAUAUUACGUUAA	-1.91 ± 0.36	-1.53 ± 0.18
UAUUAGCAAUAUUACGUUAU	-2.68 ± 0.19	-2.2 ± 0.22
UAUUAGCAAUAUUACGUUCG	-1.13 ± 0.16	-0.121 ± 0.18
UCAAAGCAAUAUUACGAACU	-3.14 ± 0.19	-1.97 ± 0.23
UCAAAGCAAUAUUACGAAGC	-3.5 ± 0.33	-1.84 ± 0.38
UCAAAGCAAUAUUACGACGG	-0.0455 ± 0.082	0.125 ± 0.12
UCAAAGCAAUAUUACGACUA	-1.14 ± 0.098	-1.03 ± 0.1
UCAAAGCAAUAUUACGAGCA	-1.07 ± 0.15	-0.556 ± 0.15
UCAAAGCAAUAUUACGAUGC	-2.78 ± 0.15	-0.924 ± 0.15
UCAAAGCAAUAUUACGAUUA	-1.26 ± 0.11	-1.16 ± 0.12
UCAAAGCAAUAUUACGAUUC	-3.67 ± 0.27	-2.63 ± 0.28
UCAAAGCAAUAUUACGCGUG	-1.31 ± 0.057	-0.871 ± 0.066
UCAAAGCAAUAUUACGGAAU	-3.53 ± 0.17	-2.94 ± 0.23
UCAAAGCAAUAUUACGGCGG	-0.543 ± 0.063	-0.0651 ± 0.088
UCAAAGCAAUAUUACGGUCU	-2.68 ± 0.16	-1.58 ± 0.14
UCAAAGCAAUAUUACGUAGG	-1.07 ± 0.072	-0.463 ± 0.096
UCAAAGCAAUAUUACGUCUG	-1.05 ± 0.076	-0.306 ± 0.087
UCAAAGCAAUAUUACGUGUU	-3.06 ± 0.1	-2.8 ± 0.14
UCAAAGCAAUAUUACGUUAC	–	-2.01 ± 0.12
UCAAAGCAAUAUUACGUUUC	-4.09 ± 0.26	-3.15 ± 0.2
UCACAGCAAUAUUACGAAGC	-3.07 ± 0.21	–
UCACAGCAAUAUUACGAGCU	-3.32 ± 0.18	-2.37 ± 0.26
UCACAGCAAUAUUACGAGGC	-2.83 ± 0.14	-2.62 ± 0.16

Sequence	self-splicing fitness (ln) (30 °C)	self-splicing fitness (ln) (37 °C)
UCACAGCAAUAUUACGCCCA	-1.47 ± 0.19	0.000225 ± 0.15
UCACAGCAAUAUUACGCCCG	-0.978 ± 0.12	-0.555 ± 0.14
UCACAGCAAUAUUACGCCGC	-3.57 ± 0.22	-2.69 ± 0.19
UCACAGCAAUAUUACGCCUC	-2.06 ± 0.35	–
UCACAGCAAUAUUACGCGAA	-1.74 ± 0.086	-0.538 ± 0.091
UCACAGCAAUAUUACGCGGU	-4.02 ± 0.13	-2.63 ± 0.13
UCACAGCAAUAUUACGCUGC	-2.78 ± 0.22	-2.09 ± 0.23
UCACAGCAAUAUUACGGAGU	-4.75 ± 0.33	-3.4 ± 0.23
UCACAGCAAUAUUACGGCAU	-4.11 ± 0.22	-2.26 ± 0.14
UCACAGCAAUAUUACGGGCG	-0.948 ± 0.094	-1.07 ± 0.093
UCACAGCAAUAUUACGGUAC	-3.57 ± 0.24	-2.6 ± 0.22
UCACAGCAAUAUUACGGUCC	-2.85 ± 0.21	-2.2 ± 0.2
UCACAGCAAUAUUACGUCAC	-3.17 ± 0.18	-1.64 ± 0.13
UCACAGCAAUAUUACGUGCA	-0.403 ± 0.067	0.0083 ± 0.085
UCACAGCAAUAUUACGUUCG	-1.07 ± 0.061	-0.209 ± 0.09
UCAGAGCAAUAUUACGAAGC	-2.55 ± 0.44	–
UCAGAGCAAUAUUACGACAG	-2.53 ± 0.19	-2.92 ± 0.36
UCAGAGCAAUAUUACGAGGA	-2.47 ± 0.15	-1.83 ± 0.16
UCAGAGCAAUAUUACGAUCU	-3.62 ± 0.21	-2.88 ± 0.28
UCAGAGCAAUAUUACGCAAG	-1.74 ± 0.42	-1.48 ± 0.29
UCAGAGCAAUAUUACGCCCG	-2 ± 0.47	–
UCAGAGCAAUAUUACGCGCC	-2.37 ± 0.46	–
UCAGAGCAAUAUUACGCGCU	–	-1.62 ± 0.29
UCAGAGCAAUAUUACGCUGU	-2.98 ± 0.26	–
UCAGAGCAAUAUUACGGAAG	-3.05 ± 0.26	-3.41 ± 0.37
